This is an account of results in the supplement of paper PMC7125110.

To fix the notation:
B1: glmS ribozyme (parent)
chain: AUAAAAGCGCCAGAACUACAGAAAUGUAGUUGACGAGGAGGAGGUUUAUCGAAUUUUCGGCGGAUGCCUCCAAA

Holding throughout (settings): with glucosamine-6-phosphate
Variants of B1 are the subject of series [1]. The experiment in a line: kcat; higher = faster cleavage; RNA array. The essentials: (§1)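 On sequenced MiSeq chips, barcoded ribozyme variants were made in situ by E. coli RNA polymerase and followed at 37 °C through a hybridised Cy3 probe. Glucosamine-6-phosphate was flowed in at 40 μM to 10 mM in HEPES/KCl/Mg(OAc)2 buffer. Exponential fits to normalised per-tile medians gave kobs, and weighted Michaelis–Menten fits gave kcat and KM.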

Series [2] covers variants of B1. The series is described as follows: self-cleavage kobs at 40 uM GlcN6P; higher = faster cleavage; RNA array. The essentials: as §1
Series [3] covers variants of B1. The experiment in a line: self-cleavage kobs at 2500 uM GlcN6P; higher = faster cleavage; RNA array. The essentials: as §1
The variants in series [4] derive from B1. The series is described as follows: self-cleavage kobs at 10000 uM GlcN6P; higher = faster cleavage; RNA array. The essentials: as §1
Variants of B1 are the subject of series [5]. The experiment in a line: self-cleavage kobs at 640 uM GlcN6P; higher = faster cleavage; RNA array. The essentials: as §1
In series [6] the parent is B1. The series is described as follows: KM; higher = weaker cofactor use; RNA array. The essentials:
as §1

Series [7] covers variants of B1. The series is described as follows: self-cleavage kobs at 160 uM GlcN6P; higher = faster cleavage; RNA array. The essentials: as §1

Usually kcat stands for the maximal rate divided by the concentration of active sites. Broadly, the KM is the substrate concentration at which the rate is half of its maximum.

± gives the standard error. For part of these data: This sample holds only a part of the variants without activity. Bounds are passed on as bounds.

Turning to U45A G59U, the kcat in the series with glucosamine-6-phosphate [1] was 0.00047 ± 0.00017 s⁻¹. For the same variant, the “self-cleavage kobs at 40 uM GlcN6P” value with glucosamine-6-phosphate [2] was below 1e-05 s⁻¹. For the same variant, the “self-cleavage kobs at 2500 uM GlcN6P” value in the series with glucosamine-6-phosphate [3] was found to be 5.25e-05 ± 1.3e-05 s⁻¹. Further, the “self-cleavage kobs at 10000 uM GlcN6P” value in the series with glucosamine-6-phosphate [4] is 0.000152 ± 2.4e-05 s⁻¹.
As for U30G U31G, in the series with glucosamine-6-phosphate [1], the kcat was determined as 0.0304 ± 0.012 s⁻¹. In the series with glucosamine-6-phosphate [2], the “self-cleavage kobs at 40 uM GlcN6P” value came to 0.00149 ± 0.00022 s⁻¹. In addition, the “self-cleavage kobs at 640 uM GlcN6P” value with glucosamine-6-phosphate [5] worked out at 0.0102 ± 0.0017 s⁻¹. Further, the “self-cleavage kobs at 10000 uM GlcN6P” value in the series with glucosamine-6-phosphate [4] turned out to be 0.036 ± 0.0081 s⁻¹.
Turning to U45C C67A, in the series with glucosamine-6-phosphate [1], the kcat was 0.00652 ± 0.00083 s⁻¹. Further, the Michaelis constant (KM) with glucosamine-6-phosphate [6] was 2490 ± 470 µM. Further, the “self-cleavage kobs at 40 uM GlcN6P” value with glucosamine-6-phosphate [2] amounted to 0.000122 ± 4.8e-05 s⁻¹. In addition, the “self-cleavage kobs at 160 uM GlcN6P” value with glucosamine-6-phosphate [7] was 0.000424 ± 0.00012 s⁻¹. Besides, the “self-cleavage kobs at 640 uM GlcN6P” value with glucosamine-6-phosphate [5] is 0.00119 ± 0.00026 s⁻¹. Besides, the “self-cleavage kobs at 2500 uM GlcN6P” value with glucosamine-6-phosphate [3] worked out at 0.00392 ± 0.0013 s⁻¹. Further, in the series with glucosamine-6-phosphate [4], the “self-cleavage kobs at 10000 uM GlcN6P” value is 0.00519 ± 0.001 s⁻¹.
For A15G A36U, the turnover number (kcat) in the series with glucosamine-6-phosphate [1] is below 1e-05 s⁻¹. In addition, in the series with glucosamine-6-phosphate [7], the “self-cleavage kobs at 160 uM GlcN6P” value was below 1e-05 s⁻¹. Besides, in the series with glucosamine-6-phosphate [5], the “self-cleavage kobs at 640 uM GlcN6P” value is below 1e-05 s⁻¹.
On to U47G U57G, for which the kcat with glucosamine-6-phosphate [1] is 6.2e-05 ± 9.2e-06 s⁻¹. Moreover, the “self-cleavage kobs at 2500 uM GlcN6P” value with glucosamine-6-phosphate [3] was found to be 6.68e-05 ± 2.2e-05 s⁻¹. Also, in the series with glucosamine-6-phosphate [4], the “self-cleavage kobs at 10000 uM GlcN6P” value turned out to be 5.61e-05 ± 1.2e-05 s⁻¹.
With A48U C70G, the kcat with glucosamine-6-phosphate [1] stood at 3.29e-05 ± 1e-05 s⁻¹. Further, the “self-cleavage kobs at 640 uM GlcN6P” value in the series with glucosamine-6-phosphate [5] stood at 3.69e-05 ± 1.1e-05 s⁻¹. Moreover, the “self-cleavage kobs at 2500 uM GlcN6P” value with glucosamine-6-phosphate [3] is 4.89e-05 ± 9.2e-06 s⁻¹.
Take C70G C71A: in the series with glucosamine-6-phosphate [1], the catalytic constant (kcat) stood at 5.66e-05 ± 1.4e-05 s⁻¹. Also, the “self-cleavage kobs at 160 uM GlcN6P” value with glucosamine-6-phosphate [7] came out at 8.13e-05 ± 1.8e-05 s⁻¹. In addition, the “self-cleavage kobs at 640 uM GlcN6P” value in the series with glucosamine-6-phosphate [5] was determined as 7.38e-05 ± 1.2e-05 s⁻¹. Further, the “self-cleavage kobs at 2500 uM GlcN6P” value with glucosamine-6-phosphate [3] worked out at 6.86e-05 ± 1.8e-05 s⁻¹. The “self-cleavage kobs at 10000 uM GlcN6P” value in the series with glucosamine-6-phosphate [4] turned out to be 3.7e-05 ± 9.8e-06 s⁻¹.
In the case of U54A G66U, in the series with glucosamine-6-phosphate [1], the kcat is 0.00199 ± 0.00037 s⁻¹. The Michaelis-Menten constant (KM) with glucosamine-6-phosphate [6] came out at 1460 ± 440 µM. For the same variant, the “self-cleavage kobs at 40 uM GlcN6P” value in the series with glucosamine-6-phosphate [2] was 8.58e-05 ± 1.9e-05 s⁻¹. Besides, in the series with glucosamine-6-phosphate [7], the “self-cleavage kobs at 160 uM GlcN6P” value is 0.000194 ± 3.3e-05 s⁻¹. For the same variant, the “self-cleavage kobs at 640 uM GlcN6P” value with glucosamine-6-phosphate [5] amounted to 0.000521 ± 8e-05 s⁻¹. Also, the “self-cleavage kobs at 2500 uM GlcN6P” value in the series with glucosamine-6-phosphate [3] worked out at 0.00141 ± 0.00024 s⁻¹. Also, the “self-cleavage kobs at 10000 uM GlcN6P” value with glucosamine-6-phosphate [4] is 0.00174 ± 0.00024 s⁻¹.
In the case of C16U G43A, the kcat in the series with glucosamine-6-phosphate [1] came out at 8.72e-05 ± 3e-05 s⁻¹. In the series with glucosamine-6-phosphate [2], the “self-cleavage kobs at 40 uM GlcN6P” value was below 1e-05 s⁻¹. Also, the “self-cleavage kobs at 2500 uM GlcN6P” value with glucosamine-6-phosphate [3] came out at 2.82e-05 ± 1e-05 s⁻¹. Besides, the “self-cleavage kobs at 10000 uM GlcN6P” value with glucosamine-6-phosphate [4] is 6.17e-05 ± 1e-05 s⁻¹.
In the case of G40U A64G, the turnover number (kcat) with glucosamine-6-phosphate [1] was found to be 0.000292 ± 2.9e-05 s⁻¹. In addition, the KM with glucosamine-6-phosphate [6] worked out at 1790 ± 360 µM. Also, the “self-cleavage kobs at 640 uM GlcN6P” value in the series with glucosamine-6-phosphate [5] was found to be 8.19e-05 ± 1.2e-05 s⁻¹. For the same variant, the “self-cleavage kobs at 2500 uM GlcN6P” value with glucosamine-6-phosphate [3] is 0.000145 ± 2.8e-05 s⁻¹. The “self-cleavage kobs at 10000 uM GlcN6P” value in the series with glucosamine-6-phosphate [4] came to 0.00026 ± 3.3e-05 s⁻¹.
On to A48U U56G, for which the turnover number (kcat) in the series with glucosamine-6-phosphate [1] was found to be 0.000239 ± 3.7e-06 s⁻¹. The KM with glucosamine-6-phosphate [6] stood at 1590 ± 58 µM. Moreover, the “self-cleavage kobs at 640 uM GlcN6P” value in the series with glucosamine-6-phosphate [5] was 6.91e-05 ± 2e-05 s⁻¹. In addition, the “self-cleavage kobs at 10000 uM GlcN6P” value with glucosamine-6-phosphate [4] was 0.000206 ± 3.9e-05 s⁻¹.
As for A12U A39C A52G, in the series with glucosamine-6-phosphate [1], the catalytic constant (kcat) is 0.000172 ± 2.4e-05 s⁻¹. For the same variant, the Michaelis constant (KM) with glucosamine-6-phosphate [6] turned out to be 2140 ± 680 µM. Also, in the series with glucosamine-6-phosphate [5], the “self-cleavage kobs at 640 uM GlcN6P” value came out at 4.67e-05 ± 1.3e-05 s⁻¹. Besides, in the series with glucosamine-6-phosphate [3], the “self-cleavage kobs at 2500 uM GlcN6P” value was determined as 8.04e-05 ± 1.8e-05 s⁻¹. Moreover, in the series with glucosamine-6-phosphate [4], the “self-cleavage kobs at 10000 uM GlcN6P” value came out at 0.00015 ± 2.7e-05 s⁻¹.
As to U56G U69G, in the series with glucosamine-6-phosphate [1], the turnover number (kcat) turned out to be 4.9e-05 ± 9e-06 s⁻¹. For the same variant, the “self-cleavage kobs at 640 uM GlcN6P” value in the series with glucosamine-6-phosphate [5] came to 8.25e-05 ± 1.5e-05 s⁻¹. Moreover, the “self-cleavage kobs at 2500 uM GlcN6P” value in the series with glucosamine-6-phosphate [3] was 4.98e-05 ± 1.3e-05 s⁻¹. Besides, the “self-cleavage kobs at 10000 uM GlcN6P” value with glucosamine-6-phosphate [4] turned out to be 4.12e-05 ± 7.4e-06 s⁻¹.
As for U46A, the kcat with glucosamine-6-phosphate [1] was 0.00402 ± 0.00054 s⁻¹. Also, the KM in the series with glucosamine-6-phosphate [6] was found to be 1880 ± 330 µM. Further, the “self-cleavage kobs at 40 uM GlcN6P” value with glucosamine-6-phosphate [2] was 9.25e-05 ± 2.1e-06 s⁻¹. Besides, the “self-cleavage kobs at 160 uM GlcN6P” value with glucosamine-6-phosphate [7] is 0.000271 ± 1.3e-05 s⁻¹. Also, the “self-cleavage kobs at 640 uM GlcN6P” value in the series with glucosamine-6-phosphate [5] is 0.000926 ± 2.8e-05 s⁻¹. The “self-cleavage kobs at 2500 uM GlcN6P” value with glucosamine-6-phosphate [3] turned out to be 0.00341 ± 0.00031 s⁻¹. The “self-cleavage kobs at 10000 uM GlcN6P” value in the series with glucosamine-6-phosphate [4] was found to be 0.00344 ± 9.1e-05 s⁻¹.
Turning to U46G, the turnover number (kcat) in the series with glucosamine-6-phosphate [1] was found to be 0.0111 ± 0.0013 s⁻¹. Also, the KM with glucosamine-6-phosphate [6] came out at 2110 ± 340 µM. Also, the “self-cleavage kobs at 40 uM GlcN6P” value with glucosamine-6-phosphate [2] was determined as 0.000228 ± 4.5e-06 s⁻¹. Further, in the series with glucosamine-6-phosphate [7], the “self-cleavage kobs at 160 uM GlcN6P” value turned out to be 0.000671 ± 2.7e-05 s⁻¹. Also, in the series with glucosamine-6-phosphate [5], the “self-cleavage kobs at 640 uM GlcN6P” value was found to be 0.00241 ± 6.1e-05 s⁻¹. Moreover, the “self-cleavage kobs at 2500 uM GlcN6P” value with glucosamine-6-phosphate [3] was determined as 0.00589 ± 0.00015 s⁻¹. Also, the “self-cleavage kobs at 10000 uM GlcN6P” value with glucosamine-6-phosphate [4] was found to be 0.00965 ± 0.00026 s⁻¹.
